Measurements reported in PMC7418704.

Target: Biotinylated human ACE2 ectodomain (ACROBiosystems AC2-H82E6), native dimeric form (human) (UniProt Q9BYF1)
Assay: FACS

Biotinylated human ACE2 ectodomain (ACROBiosystems AC2-H82E6), native dimeric form (human), sequence (Q9BYF1 18-740): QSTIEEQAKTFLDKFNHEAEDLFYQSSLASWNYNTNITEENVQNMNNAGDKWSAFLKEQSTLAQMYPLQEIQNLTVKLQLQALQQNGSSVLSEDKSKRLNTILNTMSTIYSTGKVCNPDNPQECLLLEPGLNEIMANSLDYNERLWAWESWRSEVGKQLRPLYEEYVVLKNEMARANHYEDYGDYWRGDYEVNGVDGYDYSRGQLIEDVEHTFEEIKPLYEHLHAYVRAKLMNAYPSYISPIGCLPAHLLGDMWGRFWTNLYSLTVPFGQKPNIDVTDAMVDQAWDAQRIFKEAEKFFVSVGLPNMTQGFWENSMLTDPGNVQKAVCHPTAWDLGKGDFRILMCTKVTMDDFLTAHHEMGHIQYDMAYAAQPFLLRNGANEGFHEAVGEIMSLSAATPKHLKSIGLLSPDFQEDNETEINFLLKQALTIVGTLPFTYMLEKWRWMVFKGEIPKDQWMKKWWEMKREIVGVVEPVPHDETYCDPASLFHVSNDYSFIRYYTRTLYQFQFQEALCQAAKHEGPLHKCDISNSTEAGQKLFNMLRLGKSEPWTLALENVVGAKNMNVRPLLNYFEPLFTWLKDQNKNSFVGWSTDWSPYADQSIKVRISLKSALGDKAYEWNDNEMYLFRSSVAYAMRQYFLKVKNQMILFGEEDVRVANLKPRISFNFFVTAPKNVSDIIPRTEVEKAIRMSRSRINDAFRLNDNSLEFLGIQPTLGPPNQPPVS

Substance	Kd
WIV1 RBD, yeast-displayed	0.017 nM
ZC45 RBD, yeast-displayed	> 1000 nM
ZXC21 RBD, yeast-displayed	> 1000 nM
